In patent publication US20130224313A1 (CENTRO DE INGENIERIA GENETICA Y BIOTECNOLOGIA, published 2013):

Legend:
[1] = target: T1, COMMD1 protein, amino acids 6-190 (two-hybrid clone L2-21) (human, UniProt Q8N668 6-190); experiment: yeast two-hybrid screen of a human liver cDNA library, verified by mating
T1 construct: range 6-190; Prey clone found in the two-hybrid screen; also called MURR1; not shown: fusion partner of the human liver cDNA library (prey) vector in strain Y187; not described
Description: (§1) FIG. 1. The figure illustrates the physical interaction between the L2 peptide and COMMD1. This was carried out by the technique of two hybrids in yeast. As negative controls were used the mating of the yeast strain AH109 transformed with the empty vector (pGBKT7) and the fragments of COMMD1 transformed with the Y187 strain. For the identification of the interaction, mating of the strain AH109 transformed with vector carrying the sequence of L2 and each COMMD1 fragment transformed into strain Y187 was carried out. As a positive control, the PCL1 mating bearing the GAL4 transcription factor was used. As it can be noted, the interaction occurs with the plasmids carrying the complete sequence of the COMMD1 gene and the construction containing the amino acids 110-190 of the COMMD1 protein.
(§2) corresponding to the L2 peptide sequence: […] For cloning these sequences in the pGBKT7 NcoI-BamHI vector, sequences complementary to these sites were added at the ends of the oligonucleotides. The pGBKL2-1 recombinant plasmid, which carries the L2 peptide sequence was verified by restriction analysis and sequencing. The plasmid was transformed into the AH109 yeast strain by the lithium acetate method and grown in SD-Trp medium. It was verified that it could not be self-activated when grown on SD-Trp-His plates. […]

[2] = target: T2, COMMD1 fragment, amino acids 110-190 (clone pGBKL2 (110-190)) (human, UniProt Q8N668 110-190); experiment: yeast two-hybrid with deletion clones
T2 construct: range 110-190; also called COMM domain; not shown: two-hybrid vector fusion partner; not described
Description: as §1, §2

T1 sequence (Q8N668 6-190): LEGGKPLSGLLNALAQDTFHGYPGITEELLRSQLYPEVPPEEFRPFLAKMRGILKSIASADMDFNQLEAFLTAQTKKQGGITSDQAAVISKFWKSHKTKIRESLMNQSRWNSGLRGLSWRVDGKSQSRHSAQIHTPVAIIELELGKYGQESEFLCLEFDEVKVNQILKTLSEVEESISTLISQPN
T2 sequence (Q8N668 110-190): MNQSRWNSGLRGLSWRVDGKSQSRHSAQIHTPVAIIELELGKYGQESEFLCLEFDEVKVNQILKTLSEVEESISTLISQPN

binding result [1]: binds | binding result [2]: binds
B1: L2 peptide expressed from plasmid pGBKL2-1 (pGBKT7 vector) in yeast strain AH109 (peptide)
chain: HARIKPTFRRLKWKYKGKFW
notes: Two-hybrid bait; not shown: fusion partner encoded by the pGBKT7 two-hybrid bait vector
